The target of assay [1] is T1, human coagulation factor XI (human, UniProt P03951 19-625).
T1 construct: Bought protein; also called FXI; fXI
Put plainly: ELISA on coated human FXI. On the procedure:
(§1) A standard ELISA format was used for analyzing the binding affinity of antibodies of this invention to FXI. Human FXI was obtained from Haematologic Technologies Inc. (human FXI; Cat. No. HCXI-0150), baboon FXI was generated as described below. These antigens were coated to black 384 well Maxisorp microtitter plates (Nunc; Cat. No: 460518), diluted to a concentration of 1 μg/ml in 1× Coating Buffer (Candor Bioscience; Cat. No. 121125). Plates were incubated overnight at 4° C. After ovemight incubation, plates were washed 2× with 50 μl/well using Phosphate Buffered Saline (PBS, SigmaAldrich, Cat. No. D8662)+0.05% Tween 20 (SigmaAldrich, Cat. No. P9416). Following this, 50 μl/well of blocking buffer (Smart Block; Candor Bioscience; Cat. No. 113500) was added and the plates incubated for 1 hour at room temperature. Afterwards, plates were washed for 3× using 50 μl/well of a PBS+0.05% Tween 20 buffer. Antibodies of this invention were added at different concentrations in a final volume of 30 μl/well. Plates were incubated for 1 hour at room temperature. Following this incubation step, plates were washed for 3× using 50 μl/well of a PBS+0.05% Tween 20 buffer. For the detection of bound candidate antibodies, the anti-h-Fc-POD antibody (Sigma; Cat. No. A0170) was diluted by the factor of 1:10000 in 10% Blocking Buffer. […]
For orientation: An ELISA detects its analyte on a solid surface through an enzyme-linked reagent.

The target in assay [2] is T1, human coagulation factor XI. Description: competitive ELISA on coated FXI, competitor biotinylated 1A6.
Assay [3] shares this target. Put plainly: ELISA on coated human FXI, anti-h-Fc-POD detection. On the procedure: as §1

Numbering of substitutions follows the chain as printed.

B1: humanized and germlined anti-FXI antibody TPP-3290 (antibody, human IgG1, kappa, V domains shown)
VH: EVTLRESGPALVKPTQTLTLTCTFSGFSLSTSGMGVSWIRQPPGKALEWLAHIDWDDDKYYSTSLKSRLTISKDTSKNQVVLTMTNMDPVDTATYYCARIRSSVYAHYYGMDYWGQGTTVTVSS
VL: DIVMTQSPDSLAVSLGERATISCKASQSVLYSGDNYLNWYQQKPGQPPKLLIYAASTLESGIPDRFSGSGSGTDFTLTISSLQAEDVAVYYCQQYNGTPWTFGGGTKVEIKR
notes: IgG expressed in HEK293-6E cells; also called TTP3290
As to B1, the binding result in assay [1] is “binds”.

B2: humanized and germlined anti-FXI antibody TPP-3583 (antibody, human IgG1, kappa, V domains shown)
VH: B1 VH with S37G, T63P
VL: B1 VL with T98D
notes: also called TTP-3583
On to B2, for which the binding result in assay [2] is given as “binds”.

B3: humanized and germlined anti-FXI antibody TPP-3238 (antibody, human IgG1, kappa, V domains shown)
VH: B1 VH with A106Y, H107Y, Y113V
VL: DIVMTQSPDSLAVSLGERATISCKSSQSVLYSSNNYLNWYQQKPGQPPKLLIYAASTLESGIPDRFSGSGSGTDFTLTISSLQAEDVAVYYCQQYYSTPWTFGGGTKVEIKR
notes: IgG expressed in HEK293-6E cells
Regarding B3, the binding result in assay [3] is given as “binds”.

For the origin of these results see patent US20190225705A1 (Bayer, published 2019).
